{
  "source": "paper PMC5587609",
  "key": {"[1]": {"molecular_target": "TRPV6* (rat TRPV6 residues 1–668 with I62Y, L92N and M96Q; L495Q reverted to the native leucine) (rat) (UniProt Q9R186)", "test": "crystal structure; hanging drop, 20–24% PEG 350 MME, 50 mM NaCl, 50 mM Tris-HCl pH 8.0–8.5, 20 °C; also with 10 mM CaCl2 or 1 mM GdCl3; homotetramer"}, "[2]": {"molecular_target": "TRPV6* (rat TRPV6 residues 1–668 with I62Y, L92N and M96Q; L495Q reverted to the native leucine) (rat) (UniProt Q9R186)", "test": "SEC; FSEC traces of purified protein following tryptophan fluorescence; elution time corresponding to the tetrameric assembly"}, "[3]": {"molecular_target": "TRPV6*-del1 (TRPV6* with four residues, 477–480, deleted in the S4–S5 linker) (rat) (UniProt Q9R186)", "test": "SEC; FSEC traces of purified protein following tryptophan fluorescence; elution time corresponding to the tetrameric assembly"}, "[4]": {"molecular_target": "TRPV6*-del2 (TRPV6* with six residues, 475–480, deleted in the S4–S5 linker) (rat) (UniProt Q9R186)", "test": "SEC; FSEC traces of purified protein following tryptophan fluorescence; elution time corresponding to the tetrameric assembly"}, "[5]": {"molecular_target": "TRPV6*-del3 (TRPV6* with eight residues, 473–480, deleted in the S4–S5 linker) (rat) (UniProt Q9R186)", "test": "SEC; FSEC traces of purified protein following tryptophan fluorescence; elution time corresponding to the tetrameric assembly"}, "[6]": {"molecular_target": "TRPV6*-del4 (TRPV6* with ten residues, 471–480, deleted in the S4–S5 linker) (rat) (UniProt Q9R186)", "test": "SEC; FSEC traces of purified protein following tryptophan fluorescence; elution time corresponding to the tetrameric assembly"}, "[7]": {"molecular_target": "TRPV6_(cryst) (rat TRPV6 residues 1–668 with I62Y, L92N, M96Q and L495Q) (rat) (UniProt Q9R186)", "test": "crystal structure; hanging drop, 20–24% PEG 350 MME, 50 mM NaCl, 50 mM Tris-HCl pH 8.0–8.5, 20 °C; also with 10 mM CaCl2 or 1 mM GdCl3; homotetramer"}},
  "data": [
    {"substance": "TRPV6* (rat TRPV6 residues 1–668 with I62Y, L92N and M96Q; L495Q reverted to the native leucine) (from UniProt Q9R186 1-668)", "values": [
      {"measurement": "stoichiometry N", "setting": "[1]", "result": 4},
      {"measurement": "stoichiometry N", "setting": "[2]", "result": 4}
    ]},
    {"substance": "TRPV6*-del1 (TRPV6* with four residues, 477–480, deleted in the S4–S5 linker) (from UniProt Q9R186 1-668)", "values": [
      {"measurement": "stoichiometry N", "setting": "[3]", "result": 4}
    ]},
    {"substance": "TRPV6*-del2 (TRPV6* with six residues, 475–480, deleted in the S4–S5 linker) (from UniProt Q9R186 1-668)", "values": [
      {"measurement": "stoichiometry N", "setting": "[4]", "result": 4}
    ]},
    {"substance": "TRPV6*-del3 (TRPV6* with eight residues, 473–480, deleted in the S4–S5 linker) (from UniProt Q9R186 1-668)", "values": [
      {"measurement": "stoichiometry N", "setting": "[5]", "result": 4}
    ]},
    {"substance": "TRPV6*-del4 (TRPV6* with ten residues, 471–480, deleted in the S4–S5 linker) (from UniProt Q9R186 1-668)", "values": [
      {"measurement": "stoichiometry N", "setting": "[6]", "result": 4}
    ]},
    {"substance": "TRPV6_(cryst) (rat TRPV6 residues 1–668 with I62Y, L92N, M96Q and L495Q) (from UniProt Q9R186 1-668)", "values": [
      {"measurement": "stoichiometry N", "setting": "[7]", "result": 4}
    ]}
  ]
}
